Test results reported in patent US20230310584A1 (published 2023).
Several values for one entry are separate records, joined by “and”; a condition that tells them apart may be missing. Identical values can stand only once.

Molecular target: RBD-iFcv1 (SARS-CoV-2; human, 23 residues replaced …)

B1: His-tagged CD64 (Acrobiosystems, FCA-H52H1) (receptor)
chain: QVDTTKAVITLQPPWVSVFQEETVTLHCEVLHLPGSSSTQWFLNGTATQTSTPSYRITSASVNDSGEYRCQRGLSGRSDPIQLEIHRGWLLLQVSSRVFTEGEPLALRCHAWKDKLVYNVLYYRNGKAFKFFHWNSNLTILKTNISHNGTYHCSGMGKHRYTSAGISVTVKELFPAPVLNASVTSPLLEGNLVTLSCETKLLLQRPGLQLYFSFYMGSKTLRGRNTSSEYQILTARREDSGLYWCEAATEDGNVLKRSPELELQVLGLQLPTP
Kd: 2.34 nM and 1.61 nM and 0.963 nM | kon: 260000 M⁻¹ s⁻¹ and 189000 M⁻¹ s⁻¹ and 200000 M⁻¹ s⁻¹
